Values of other authors, collected in paper PMC11866755.

Experiments:
Test in all cases: NMR
Asp101 = Asp101 (UniProt position 119, KKIVSDGNGMN)
His15 = His15 (UniProt position 33, AAMKRHGLDNY)
Asp87 = Asp87 (UniProt position 105, ALLSSDITASV)
Asp66 = Asp66 (UniProt position 84, RWWCNDGRTPG)
Asp18 = Asp18 (UniProt position 36, KRHGLDNYRGY)
Glu7 = Glu7 (UniProt position 25, VFGRCELAAAM)
Asp48 = Asp48 (UniProt position 66, TNRNTDGSTDY)
Glu35 = Glu35 (UniProt position 53, CAAKFESNFNT)
Asp119 = Asp119 (UniProt position 137, RCKGTDVQAWI)
Asp52 = Asp52 (UniProt position 70, TDGSTDYGILQ)
Glu17 = Glu17 (UniProt position 38, YKTCPEGKNLC)
Asp59 = Asp59 (UniProt position 80, VCCSTDKCN--)
Asp42 = Asp42 (UniProt position 63, KRGCADNCPKN)
His4 = His4 (UniProt position 25, YTLKCHNTQLP)
Glu135 = Glu135 (UniProt position 217, AQAKKEKLNIW); details: folded protein, ligand state not stated
Glu57 = Glu57 (UniProt position 139, EKYGPEASAFT); details: folded protein, ligand state not stated
Asp95 = Asp95 (UniProt position 177, AYIYADGKMVN); details: folded protein, ligand state not stated
His121 = His121 (UniProt position 203, KGNNTHEQLLR); details: folded protein, ligand state not stated
Glu10 = Glu10 (UniProt position 92, KKLHKEPATLI); details: folded protein, ligand state not stated
Glu43 = Glu43 (UniProt position 125, LVDTPETKHPK); details: folded protein, ligand state not stated
Glu75 = Glu75 (UniProt position 157, KKIEVEFDKGQ); details: folded protein, ligand state not stated
Glu101 = Glu101 (UniProt position 183, GKMVNEALVRQ); details: folded protein, ligand state not stated
His8 = His8 (UniProt position 90, STKKLHKEPAT); details: folded protein, ligand state not stated
Glu129 = Glu129 (UniProt position 211, LLRKAEAQAKK); details: folded protein, ligand state not stated
Glu73 = Glu73 (UniProt position 155, NAKKIEVEFDK); details: folded protein, ligand state not stated
Glu122 = Glu122 (UniProt position 204, GNNTHEQLLRK); details: folded protein, ligand state not stated
Glu67 = Glu67 (UniProt position 149, TKKMVENAKKI); details: folded protein, ligand state not stated
Asp40 = Asp40 (UniProt position 122, RLLLVDTPETK); details: folded protein, ligand state not stated
Asp83 = Asp83 (UniProt position 165, KGQRTDKYGRG); details: folded protein, ligand state not stated
Glu52 = Glu52 (UniProt position 134, PKKFNEKYGPE); details: folded protein, ligand state not stated
Asp77 = Asp77 (UniProt position 159, IEVEFDKGQRT); details: folded protein, ligand state not stated
[1] = target: Glu2 (position 2, ----GEAHG--); details: free peptide in solution
[2] = target: His4 (position 4, --GEAHG----); details: free peptide in solution
[3] = target: Glu4 (position 4, --GEAEG----); details: free peptide in solution
[4] = target: Glu2 (position 2, ----GEAEG--); details: free peptide in solution
[5] = target: His2 (position 2, ----GHAHG--); details: free peptide in solution
[6] = target: His4 (position 4, --GHAHG----); details: free peptide in solution
[7] = target: Glu4 (position 4, --GHAEG----); details: free peptide in solution
[8] = target: His2 (position 2, ----GHAEG--); details: free peptide in solution

In the case of “Hen egg-white lysozyme (HEWL) (Gallus gallus)”, the pKa (Asp101) is given as 4.5 ±0.1, the pKa (His15) is given as 5.5 ±0.2 and the pKa (Asp87) is given as 2.2 ±0.1. For the same molecule, the pKa (Asp66) was 1.2 ±0.2, the pKa (Asp18) was 2.8 ±0.3 and the pKa (Glu7) was 2.6 ±0.2. For the same molecule, the pKa (Asp48) was 1.4 ±0.2, the pKa (Glu35) was 6.1 ±0.4 and the pKa (Asp119) was 3.5 ±0.3. The pKa (Asp52) was 3.6 ±0.3.

In the case of “Cardiotoxin V (cytotoxin 5, CTX A5) (Naja atra (printed as Naja naja atra, Chinese/Taiwan cobra))”, the pKa (Glu17) is listed as 4.0, the pKa (Asp59) is listed as less than 2.0 and the pKa (Asp42) is listed as 3.2. The pKa (His4) was 5.5.

In the case of “Staphylococcal nuclease Delta+PHS (printed as ΔPHS) (Staphylococcus aureus; G50F;V51N;P117G;H124L;S128A;del44-49)”, the pKa (Glu135) is listed as 3.8, the pKa (Glu57) is listed as 3.5 and the pKa (Asp95) is listed as 2.2. The pKa (His121) was 5.24, the pKa (Glu10) was 2.8 and the pKa (Glu43) was 4.3. The pKa (Glu75) was 3.3, the pKa (Glu101) was 3.8 and the pKa (His8) was 6.5. For the same molecule, the pKa (Glu129) was 3.8, the pKa (Glu73) was 3.3 and the pKa (Glu122) was 3.9. The pKa (Glu67) was 3.58, the pKa (Asp40) was 3.9 and the pKa (Asp83) was less than 2.2. The pKa (Glu52) was 3.9 and the pKa (Asp77) was less than 2.2.

For GEAHG [Pentapeptide GEAHG (synthetic)], the pKa [1] is given as 3.76 and the pKa [2] is given as 6.59.

In the case of GEAEG [Pentapeptide GEAEG (synthetic)], the pKa [3] is given as 4.04 and the pKa [4] is given as 4.06.

In the case of GHAHG [Pentapeptide GHAHG (synthetic)], the pKa [5] is given as 6.23 and the pKa [6] is given as 6.66.

In the case of GHAEG [Pentapeptide GHAEG (synthetic)], the pKa [7] is listed as 3.81 and the pKa [8] is listed as 6.14.
